In publication doi:10.1101/2023.07.20.549907, “Mechanism of outer kinetochore assembly on microtubules and its regulation by mitotic error correction” (bioRxiv, 2023):

B1: Dam1 subunit of the Dam1 complex (natural protein, S. cerevisiae, UniProt P53267 1-343, looked up)
chain: MSEDKAKLGTTRSATEYRLSIGSAPTSRRSSMGESSSLMKFADQEGLTSSVGEYNENTIQQLLLPKIRELSDSIITLDSNFTRLNFIHESLADLNESLGSLLYGIMSNSWCVEFSQAPHDIQDDLIAIKQLKSLEDEKNNLVMELSNMERGIKRKKDEQGENDLAKASQNKQFNQPLFPSSQVRKYRSYDNRDKRKPSKIGNNLQVENEEDYEDDTSSEASFVLNPTNIGMSKSSQGHVTKTTRLNNNTNSKLRRKSILHTIRNSIASGADLPIENDNVVNLGDLHPNNRISLGSGAARVVNGPVTKNRNSMFSGRAERKPTESRHSVAKKTEKKINTRPPFR
notes: Dam1 subunit of the S. cerevisiae Dam1 complex; Stood in the structure as part of the whole Dam1 complex; also called Dam1^Staple (residues 1-26); Dam1^C-ter; source: as subunit of m2
B2: Spc34 subunit of the Dam1 complex (natural protein, S. cerevisiae, UniProt P36131 1-295, looked up)
chain: MGESLDRCIDDINRAVDSMSTLYFKPPGIFHNAILQGASNKASIRKDITRLIKDCNHDEAYLLFKVNPEKQSVSRRDGKEGVFDYVIKRDTDMKRNRRLGRPGEKPIIHVPKEVYLNKDRLDLNNKRRRTATTSGGGLNGFIFDTDLIGSSVISNSSSGTFKALSAVFKDDPQIQRLLYALENGSVLMEEESNNQRRKTIFVEDFPTDLILKVMAEVTDLWPLTEFKQDYDQLYHNYEQLSSKLRFIKKEVLLQDDRLKTMSQYHPSSSHDVAKIIRKEKDEIRRLEMEIANLQE
notes: Spc34 subunit of the S. cerevisiae Dam1 complex; Stood in the structure as part of the whole Dam1 complex; source: as subunit of m2

What was measured:
Assay in all cases: cryo-EM structure; complexes assembled on cryo-EM grids by step-wise addition of taxol-stabilized microtubule filaments, Ndc80c and Dam1c; sub-boxing, signal subtraction and symmetry expansion for the separate reconstructions
Details in all cases: both partners purified
[1] = molecular target: B1
[2] = molecular target: B2
[3] = molecular target: T1, Ndc80 subunit of the Ndc80 complex (S. cerevisiae, UniProt P40460 1-691)
T1 construct: Ndc80 subunit of the budding yeast Ndc80 complex; Stood in the structure as part of the Ndc80 complex; also called Ndc80^CH; Ndc80^CC; source: as subunit of m1
T1 sequence (P40460 whole entry, one chain of several): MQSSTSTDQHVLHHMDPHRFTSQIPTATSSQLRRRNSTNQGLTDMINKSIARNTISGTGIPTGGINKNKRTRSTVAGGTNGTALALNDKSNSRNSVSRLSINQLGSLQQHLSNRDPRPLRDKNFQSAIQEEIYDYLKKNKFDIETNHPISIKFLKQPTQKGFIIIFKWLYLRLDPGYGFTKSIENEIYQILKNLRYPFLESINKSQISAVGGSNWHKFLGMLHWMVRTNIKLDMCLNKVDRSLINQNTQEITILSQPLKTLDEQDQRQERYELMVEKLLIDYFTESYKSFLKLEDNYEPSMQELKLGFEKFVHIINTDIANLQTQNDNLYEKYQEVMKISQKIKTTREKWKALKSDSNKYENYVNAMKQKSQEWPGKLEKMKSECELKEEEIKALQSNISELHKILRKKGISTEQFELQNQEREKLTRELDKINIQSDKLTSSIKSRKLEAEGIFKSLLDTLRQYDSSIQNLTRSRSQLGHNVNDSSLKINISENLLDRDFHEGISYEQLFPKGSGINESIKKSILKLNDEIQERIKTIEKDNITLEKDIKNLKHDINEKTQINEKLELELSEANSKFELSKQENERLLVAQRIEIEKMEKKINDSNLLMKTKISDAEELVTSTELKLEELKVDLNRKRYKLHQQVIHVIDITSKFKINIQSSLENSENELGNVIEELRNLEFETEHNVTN

[4] = molecular target: T2, Nuf2 subunit of the Ndc80 complex (S. cerevisiae, UniProt P33895 1-451)
T2 construct: Nuf2 subunit of the budding yeast Ndc80 complex; Stood in the structure as part of the Ndc80 complex; also called Nuf2^CH; Nuf2^CC; source: as subunit of m1
T2 sequence (P33895 whole entry, one chain of several): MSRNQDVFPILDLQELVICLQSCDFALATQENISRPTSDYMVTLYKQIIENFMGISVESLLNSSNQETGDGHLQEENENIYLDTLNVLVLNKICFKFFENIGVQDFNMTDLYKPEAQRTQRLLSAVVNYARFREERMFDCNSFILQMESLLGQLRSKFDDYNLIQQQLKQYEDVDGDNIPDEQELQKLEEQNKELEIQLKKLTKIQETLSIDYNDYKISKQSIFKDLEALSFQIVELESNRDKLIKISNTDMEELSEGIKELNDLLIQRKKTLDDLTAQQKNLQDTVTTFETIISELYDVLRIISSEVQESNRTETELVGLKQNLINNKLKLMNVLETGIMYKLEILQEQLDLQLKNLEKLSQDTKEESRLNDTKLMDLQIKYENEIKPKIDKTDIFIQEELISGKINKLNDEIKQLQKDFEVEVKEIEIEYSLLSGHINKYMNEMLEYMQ

[5] = molecular target: T3, Ndc80 complex (Ndc80, Nuf2, Spc24, Spc25), budding yeast (S. cerevisiae, UniProt P40460 1-691; P33895 1-451; Q04477 1-213; P40014 1-221)
T3 construct: Ndc80 subunit of the budding yeast Ndc80 complex; Nuf2 subunit of the budding yeast Ndc80 complex; Spc24 subunit of the budding yeast Ndc80 complex; Spc25 subunit of the budding yeast Ndc80 complex; Complex used for cryo-EM; Spc24-Spc25 gave no cryo-EM density; copies: + + +
T3 sequence (P40460 whole entry, chain 1 of 4): as the sequence (P40460 whole entry, one chain of several) above
T3 sequence (P33895 whole entry, chain 2 of 4): as the sequence (P33895 whole entry, one chain of several) above
T3 sequence (Q04477 whole entry, chain 3 of 4): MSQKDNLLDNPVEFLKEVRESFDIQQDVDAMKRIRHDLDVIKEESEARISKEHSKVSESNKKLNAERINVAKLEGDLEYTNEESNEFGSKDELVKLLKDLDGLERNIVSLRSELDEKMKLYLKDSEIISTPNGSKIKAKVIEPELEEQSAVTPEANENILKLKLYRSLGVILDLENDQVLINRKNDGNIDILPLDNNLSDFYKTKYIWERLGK
T3 sequence (P40014 whole entry, chain 4 of 4): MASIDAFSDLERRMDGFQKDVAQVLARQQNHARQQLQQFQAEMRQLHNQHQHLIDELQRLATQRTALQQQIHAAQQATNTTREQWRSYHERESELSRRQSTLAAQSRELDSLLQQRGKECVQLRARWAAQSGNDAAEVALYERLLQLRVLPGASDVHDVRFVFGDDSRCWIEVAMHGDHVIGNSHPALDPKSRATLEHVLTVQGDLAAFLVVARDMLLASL

binding result [1] | binding result [3] | Binder | other results
binds | – | Ask1 subunit of the Dam1 complex (natural protein, S. cerevisiae, UniProt P35734 1-292, looked up, Ask1 subunit of the S. cerevisiae Dam1 complex; Stood in the structure as part of the whole Dam1 complex; also called Ask1^B; source: as subunit of m2) MDSASKEETLEKLDQEITVNLQKIDSNLSFCFHKITQDIIPHVATYSEICERIMDSTEWLGTMFQETGLVNLQANAAAPVGNAPVKSLVSNNVGIFPTSAEEASRQSQTDNGPNEADSAVHVNRDVHSMFNNDSIDDFHTANITSTGQILKLPDSSDEDTGSEAVPSREQTDLTGEGHGGADDEQDESTIQRQSRKRKISLLLQQQYGSSSSMVPSPIVPNKMRKQLAHEEHINNDGDNDDENSNNIESSPLKQGHHHPKGQADDNNEGPDEEESTKEVPKPGTIIHFSTNR | –
– | binds | Spc19 subunit of the Dam1 complex (natural protein, S. cerevisiae, UniProt Q03954 1-165, looked up, Spc19 subunit of the S. cerevisiae Dam1 complex; Stood in the structure as part of the whole Dam1 complex; source: as subunit of m2) MTDALEQSVLALEGTVSVLKDSVESLKCANEPSTNLASTMLQTKRVFRLVPEYDVERSKLDLIEEVEPLVRTLGDKLRKSMGRMQRELDTLQQTYELNDLRLKKNISMDDDDALNSPDMGQEYEGRDADDVVMMASSTNEELEELKKLKEKKKQLENKLEILKQK | binding result [2]: binds
binds | – | Dad4 subunit of the Dam1 complex (natural protein, S. cerevisiae, UniProt P69851 1-72, looked up, Dad4 subunit of the S. cerevisiae Dam1 complex; Stood in the structure as part of the whole Dam1 complex; also called Dad4^B; source: as subunit of m2) MENPHEQVQANILSRIIGNVKRLNESVAILNQELVTINNRNKNLEIMGAICDNYHSSVQFNLEATNNKKPPL | –
– | binds | B1 | binding result [4]: binds
binds | – | Dad1 subunit of the Dam1 complex (natural protein, S. cerevisiae, UniProt Q12248 1-94, looked up, Dad1 subunit of the S. cerevisiae Dam1 complex; Stood in the structure as part of the whole Dam1 complex; also called Dad1^A; source: as subunit of m2) MMASTSNDEEKLISTTDKYFIEQRNIVLQEINETMNSILNGLNGLNISLESSIAVGREFQSVSDLWKTLYDGLESLSDEAPIDEQPTLSQSKTK | –
– | – | B2 | binding result [5]: binds
